The record followed here is publication PMC6370476.

For this experiment, the target named is SpyTag-γPFD-Cys (not stated | Methanocaldococcus jannaschii). The experiment in a line: leaching of fluorescent protein from the hydrogel, fluorescence of the buffer.

SpyCatcher-mCerulean3 yielded a percent leached from the hydrogel after two weeks of 35%.
